Measurements from patent US20120108504A1 (TEMPLE UNIVERSITY OF THE COMMONWEALTH SYSTEM OF HIGHER …, published 2012).
Non-standard residues stand in square brackets, D forms with d. No end group written: not given here. *: point of attachment. αGalNAc = CC(=O)N[C@@H]1[C@@H](O)[C@@H](O)[C@@H](CO)O[C@@H]1*; Tyr(3,5-I2) = N[C@@H](Cc1cc(I)c(O)c(I)c1)C(=O)O; Ahx = NCCCCCC(=O)O

Target: T1, leptin receptor (ObR) (human, UniProt P48357 22-1165)
T1 sequence: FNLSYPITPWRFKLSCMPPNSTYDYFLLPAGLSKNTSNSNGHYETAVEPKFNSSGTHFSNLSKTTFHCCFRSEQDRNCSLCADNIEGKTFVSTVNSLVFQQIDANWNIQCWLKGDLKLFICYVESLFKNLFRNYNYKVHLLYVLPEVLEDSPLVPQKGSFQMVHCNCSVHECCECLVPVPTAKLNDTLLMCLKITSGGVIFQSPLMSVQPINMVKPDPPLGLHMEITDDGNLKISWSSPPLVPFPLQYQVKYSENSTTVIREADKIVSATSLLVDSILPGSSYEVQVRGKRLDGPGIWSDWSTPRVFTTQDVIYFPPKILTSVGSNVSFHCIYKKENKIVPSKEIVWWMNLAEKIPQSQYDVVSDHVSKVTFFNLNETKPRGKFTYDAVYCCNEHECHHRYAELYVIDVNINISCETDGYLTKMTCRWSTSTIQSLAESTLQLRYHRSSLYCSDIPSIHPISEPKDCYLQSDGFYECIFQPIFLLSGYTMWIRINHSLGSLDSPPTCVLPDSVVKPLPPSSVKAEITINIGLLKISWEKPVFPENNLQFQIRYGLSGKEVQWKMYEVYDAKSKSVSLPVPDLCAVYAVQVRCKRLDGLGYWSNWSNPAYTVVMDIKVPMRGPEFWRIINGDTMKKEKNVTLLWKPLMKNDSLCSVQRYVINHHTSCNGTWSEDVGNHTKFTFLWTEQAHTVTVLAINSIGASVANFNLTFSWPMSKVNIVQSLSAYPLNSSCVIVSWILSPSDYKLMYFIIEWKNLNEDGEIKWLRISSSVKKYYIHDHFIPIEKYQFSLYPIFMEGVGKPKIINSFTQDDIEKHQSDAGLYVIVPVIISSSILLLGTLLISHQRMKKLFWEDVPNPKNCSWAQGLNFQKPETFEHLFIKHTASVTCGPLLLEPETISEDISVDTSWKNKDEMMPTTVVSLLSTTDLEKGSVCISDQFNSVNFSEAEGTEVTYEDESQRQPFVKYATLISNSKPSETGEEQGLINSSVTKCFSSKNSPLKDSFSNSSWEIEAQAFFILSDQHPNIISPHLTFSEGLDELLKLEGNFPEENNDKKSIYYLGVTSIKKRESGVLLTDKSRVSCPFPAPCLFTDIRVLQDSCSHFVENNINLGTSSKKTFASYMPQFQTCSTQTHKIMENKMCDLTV
Assay: cell-based or functional assay

EC50 (nM), proliferation of ObR-positive LN229 glioblastoma cells, no exogenous leptin: < 1 nM
IC50 (nM), inhibition of leptin-induced (12 nM leptin) proliferation of ObR-positive LN229 cells: 100 nM
B1: Compound (1) [Tyr(I2)-Ser-Thr(α-GalNAc)-Glu-Val-Val-Ala-Leu-Ser-Arg-AcpNH2] (peptide)
peptide: [Tyr(3,5-I2)]ST(αGalNAc)EVVALSR[Ahx]-NH2
